Measurements published in PMC2112731.

Biological target: F-actin in a glycerinated muscle fiber (rabbit (endogenous in psoas muscle fiber)) (UniProt P68135)
Assay: fluorescence intensity of a labeled muscle fiber

Work on “phalloidin-(fluorescein isothiocyanate) FITC complex (peptide)” yielded a stoichiometry N (mol of the toxin per mol of actin) of 1.
